Assay [1] deals with T1, human CD28 expressed on cells (CHO-k1 stably overexpressing human CD28; T cells in functional assays) (human, UniProt P10747 19-220). The assay is described as follows: cell-based or functional assay.
In assay [2] the target is T2, human CD19 on Nalm6 B cells (human, UniProt P15391 20-556).
T2 sequence: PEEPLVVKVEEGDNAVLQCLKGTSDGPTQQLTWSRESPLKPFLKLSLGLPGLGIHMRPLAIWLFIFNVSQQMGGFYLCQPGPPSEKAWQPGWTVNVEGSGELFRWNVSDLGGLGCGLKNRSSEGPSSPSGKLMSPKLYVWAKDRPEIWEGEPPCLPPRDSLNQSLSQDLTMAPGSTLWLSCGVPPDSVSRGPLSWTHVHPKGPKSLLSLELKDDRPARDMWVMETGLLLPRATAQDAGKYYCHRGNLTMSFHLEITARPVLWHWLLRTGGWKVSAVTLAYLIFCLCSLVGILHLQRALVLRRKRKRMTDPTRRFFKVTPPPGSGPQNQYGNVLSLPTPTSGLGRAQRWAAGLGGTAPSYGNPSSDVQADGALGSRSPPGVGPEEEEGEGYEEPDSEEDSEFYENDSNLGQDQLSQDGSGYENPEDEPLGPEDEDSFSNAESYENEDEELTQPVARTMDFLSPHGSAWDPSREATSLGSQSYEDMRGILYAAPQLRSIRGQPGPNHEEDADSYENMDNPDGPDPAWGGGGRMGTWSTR
The assay can be described thus: flow cytometry on Nalm6 cells.

In assay [3] the target is T1, human CD28 expressed on cells (CHO-k1 …). The assay can be described thus: flow cytometry on CHOk1-CD28 cells.

B1: FAP (4B9) - CD28 (CD28(SA)_Variant 11) 1+1 (bispecific antibody, human IgG1, kappa, L234A L235A)
heavy 1: EIVLTQSPGTLSLSPGERATLSCRASQSVTSSYLAWYQQKPGQAPRLLINVGSRRATGIPDRFSGSGSGTDFTLTISRLEPEDFAVYYCQQGIMLPPTFGQGTKVEIKSSASTKGPSVFPLAPSSKSTSGGTAALGCLVKDYFPEPVTVSWNSGALTSGVHTFPAVLQSSGLYSLSSVVTVPSSSLGTQTYICNVNHKPSNTKVDKKVEPKSCDKTHTCPPCPAPEAAGGPSVFLFPPKPKDTLMISRTPEVTCVVVDVSHEDPEVKFNWYVDGVEVHNAKTKPREEQYNSTYRVVSVLTVLHQDWLNGKEYKCKVSNKALGAPIEKTISKAKGQPREPQVCTLPPSRDELTKNQVSLSCAVKGFYPSDIAVEWESNGQPENNYKTTPPVLDSDGSFFLVSKLTVDKSRWQQGNVFSCSVMHEALHNHYTQKSLSLSP
light 1: EVQLLESGGGLVQPGGSLRLSCAASGFTFSSYAMSWVRQAPGKGLEWVSAIIGSGASTYYADSVKGRFTISRDNSKNTLYLQMNSLRAEDTAVYYCAKGWFGGFNYWGQGTLVTVSSASVAAPSVFIFPPSDEQLKSGTASVVCLLNNFYPREAKVQWKVDNALQSGNSQESVTEQDSKDSTYSLSSTLTLSKADYEKHKVYACEVTHQGLSSPVTKSFNRGEC
heavy 2: not shown
light 2: not shown
B1: in assay [1], the “EC50 killing (nM), TCB-mediated killing of MV3 target cells” value (from here on “EC50 killing (nM), TCB-mediated killing”) turned out to be 1.73 nM.

B2: FAP (4B9) - CD28 (CD28(SA)_Variant 12) 1+1 (bispecific antibody, human IgG1, kappa, L234A L235A)
heavy 1: EIVLTQSPGTLSLSPGERATLSCRASQSVTSSYLAWYQQKPGQAPRLLINVGSRRATGIPDRFSGSGSGTDFTLTISRLEPEDFAVYYCQQGIMLPPTFGQGTKVEIKSSASTKGPSVFPLAPSSKSTSGGTAALGCLVKDYFPEPVTVSWNSGALTSGVHTFPAVLQSSGLYSLSSVVTVPSSSLGTQTYICNVNHKPSNTKVDKKVEPKSCDKTHTCPPCPAPEAAGGPSVFLFPPKPKDTLMISRTPEVTCVVVDVSHEDPEVKFNWYVDGVEVHNAKTKPREEQYNSTYRVVSVLTVLHQDWLNGKEYKCKVSNKALGAPIEKTISKAKGQPREPQVCTLPPSRDELTKNQVSLSCAVKGFYPSDIAVEWESNGQPENNYKTTPPVLDSDGSFFLVSKLTVDKSRWQQGNVFSCSVMHEALHNHYTQKSLSLSP
light 1: EVQLLESGGGLVQPGGSLRLSCAASGFTFSSYAMSWVRQAPGKGLEWVSAIIGSGASTYYADSVKGRFTISRDNSKNTLYLQMNSLRAEDTAVYYCAKGWFGGFNYWGQGTLVTVSSASVAAPSVFIFPPSDEQLKSGTASVVCLLNNFYPREAKVQWKVDNALQSGNSQESVTEQDSKDSTYSLSSTLTLSKADYEKHKVYACEVTHQGLSSPVTKSFNRGEC
heavy 2: not shown
light 2: DIQMTQSPSSLSASVGDRVTITCRASQNIYVWLNWYQQKPGKAPKLLIYKASNLYSGVPSRFSGSRSGTDFTLTISSLQPEDFATYYCQQGQTYPYTFGQGTKLEIKRTVAAPSVFIFPPSDRKLKSGTASVVCLLNNFYPREAKVQWKVDNALQSGNSQESVTEQDSKDSTYSLSSTLTLSKADYEKHKVYACEVTHQGLSSPVTKSFNRGEC
For B2, in assay [1], the “EC50 killing (nM), TCB-mediated killing” value is 0.98 nM.

B3: FAP (4B9) - CD28 (CD28(SA)_Variant 29) 1+1 (bispecific antibody, human IgG1, kappa, L234A L235A)
heavy 1: EIVLTQSPGTLSLSPGERATLSCRASQSVTSSYLAWYQQKPGQAPRLLINVGSRRATGIPDRFSGSGSGTDFTLTISRLEPEDFAVYYCQQGIMLPPTFGQGTKVEIKSSASTKGPSVFPLAPSSKSTSGGTAALGCLVKDYFPEPVTVSWNSGALTSGVHTFPAVLQSSGLYSLSSVVTVPSSSLGTQTYICNVNHKPSNTKVDKKVEPKSCDKTHTCPPCPAPEAAGGPSVFLFPPKPKDTLMISRTPEVTCVVVDVSHEDPEVKFNWYVDGVEVHNAKTKPREEQYNSTYRVVSVLTVLHQDWLNGKEYKCKVSNKALGAPIEKTISKAKGQPREPQVCTLPPSRDELTKNQVSLSCAVKGFYPSDIAVEWESNGQPENNYKTTPPVLDSDGSFFLVSKLTVDKSRWQQGNVFSCSVMHEALHNHYTQKSLSLSP
light 1: EVQLLESGGGLVQPGGSLRLSCAASGFTFSSYAMSWVRQAPGKGLEWVSAIIGSGASTYYADSVKGRFTISRDNSKNTLYLQMNSLRAEDTAVYYCAKGWFGGFNYWGQGTLVTVSSASVAAPSVFIFPPSDEQLKSGTASVVCLLNNFYPREAKVQWKVDNALQSGNSQESVTEQDSKDSTYSLSSTLTLSKADYEKHKVYACEVTHQGLSSPVTKSFNRGEC
heavy 2: not shown
light 2: not shown
For the molecule B3, the “EC50 killing (nM), TCB-mediated killing” value in assay [1] is 1.11 nM.

B4: FAP (4B9) - CD28 (CD28(SA)_Variant 15) 1+1 (bispecific antibody, human IgG1, kappa, L234A L235A)
heavy 1: EIVLTQSPGTLSLSPGERATLSCRASQSVTSSYLAWYQQKPGQAPRLLINVGSRRATGIPDRFSGSGSGTDFTLTISRLEPEDFAVYYCQQGIMLPPTFGQGTKVEIKSSASTKGPSVFPLAPSSKSTSGGTAALGCLVKDYFPEPVTVSWNSGALTSGVHTFPAVLQSSGLYSLSSVVTVPSSSLGTQTYICNVNHKPSNTKVDKKVEPKSCDKTHTCPPCPAPEAAGGPSVFLFPPKPKDTLMISRTPEVTCVVVDVSHEDPEVKFNWYVDGVEVHNAKTKPREEQYNSTYRVVSVLTVLHQDWLNGKEYKCKVSNKALGAPIEKTISKAKGQPREPQVCTLPPSRDELTKNQVSLSCAVKGFYPSDIAVEWESNGQPENNYKTTPPVLDSDGSFFLVSKLTVDKSRWQQGNVFSCSVMHEALHNHYTQKSLSLSP
light 1: EVQLLESGGGLVQPGGSLRLSCAASGFTFSSYAMSWVRQAPGKGLEWVSAIIGSGASTYYADSVKGRFTISRDNSKNTLYLQMNSLRAEDTAVYYCAKGWFGGFNYWGQGTLVTVSSASVAAPSVFIFPPSDEQLKSGTASVVCLLNNFYPREAKVQWKVDNALQSGNSQESVTEQDSKDSTYSLSSTLTLSKADYEKHKVYACEVTHQGLSSPVTKSFNRGEC
heavy 2: not shown
light 2: not shown
Turning to B4, in assay [1], the “EC50 killing (nM), TCB-mediated killing” value turned out to be 1.79 nM.

B5: Molecule 18C: CD19 (8B8-2B11)-CD28 (SA v8) 1+1 (bispecific antibody, human IgG1, kappa, L234A L235A)
heavy 1: not shown
heavy 2: DIVMTQTPLSLSVTPGQPASISCKSSQSLETSTGTTYLNWYLQKPGQSPQLLIYRVSKRFSGVPDRFSGSGSGTDFTLKISRVEAEDVGVYYCLQLLEDPYTFGQGTKLEIKSSASTKGPSVFPLAPSSKSTSGGTAALGCLVKDYFPEPVTVSWNSGALTSGVHTFPAVLQSSGLYSLSSVVTVPSSSLGTQTYICNVNHKPSNTKVDKKVEPKSCDKTHTCPPCPAPEAAGGPSVFLFPPKPKDTLMISRTPEVTCVVVDVSHEDPEVKFNWYVDGVEVHNAKTKPREEQYNSTYRVVSVLTVLHQDWLNGKEYKCKVSNKALGAPIEKTISKAKGQPREPQVCTLPPSRDELTKNQVSLSCAVKGFYPSDIAVEWESNGQPENNYKTTPPVLDSDGSFFLVSKLTVDKSRWQQGNVFSCSVMHEALHNHYTQKSLSLSP
light 1: not shown
light 2: QVQLVQSGAEVKKPGASVKVSCKASGYTFTDYIMHWVRQAPGQGLEWMGYINPYNDGSKYTEKFQGRVTMTSDTSISTAYMELSRLRSDDTAVYYCARGTYYYGPQLFDYWGQGTTVTVSSASVAAPSVFIFPPSDEQLKSGTASVVCLLNNFYPREAKVQWKVDNALQSGNSQESVTEQDSKDSTYSLSSTLTLSKADYEKHKVYACEVTHQGLSSPVTKSFNRGEC
notes: also called P1AF0175; CD19-CD28 v8
On to B5, for which the values for the EC50 in assay [2] and in assay [3] were 0.232 nM and 232 nM, respectively.

B6: Molecule 18A: CD19 (8B8-2B11)-CD28 (SA v29) 1+1 (bispecific antibody, human IgG1, kappa, L234A L235A)
heavy 1: not shown
heavy 2: DIVMTQTPLSLSVTPGQPASISCKSSQSLETSTGTTYLNWYLQKPGQSPQLLIYRVSKRFSGVPDRFSGSGSGTDFTLKISRVEAEDVGVYYCLQLLEDPYTFGQGTKLEIKSSASTKGPSVFPLAPSSKSTSGGTAALGCLVKDYFPEPVTVSWNSGALTSGVHTFPAVLQSSGLYSLSSVVTVPSSSLGTQTYICNVNHKPSNTKVDKKVEPKSCDKTHTCPPCPAPEAAGGPSVFLFPPKPKDTLMISRTPEVTCVVVDVSHEDPEVKFNWYVDGVEVHNAKTKPREEQYNSTYRVVSVLTVLHQDWLNGKEYKCKVSNKALGAPIEKTISKAKGQPREPQVCTLPPSRDELTKNQVSLSCAVKGFYPSDIAVEWESNGQPENNYKTTPPVLDSDGSFFLVSKLTVDKSRWQQGNVFSCSVMHEALHNHYTQKSLSLSP
light 1: not shown
light 2: QVQLVQSGAEVKKPGASVKVSCKASGYTFTDYIMHWVRQAPGQGLEWMGYINPYNDGSKYTEKFQGRVTMTSDTSISTAYMELSRLRSDDTAVYYCARGTYYYGPQLFDYWGQGTTVTVSSASVAAPSVFIFPPSDEQLKSGTASVVCLLNNFYPREAKVQWKVDNALQSGNSQESVTEQDSKDSTYSLSSTLTLSKADYEKHKVYACEVTHQGLSSPVTKSFNRGEC
notes: also called P1AE8002; CD19-CD28 v29
For the molecule B6, the EC50 was found to be 0.274 nM in assay [2] and 6.65 nM in assay [3].

These data come from patent US20200199234A1 (published 2020).
